Measured values from US20250319163A1, “TREATMENT OF TYPE 2 DIABETES MELLITUS” (SANOFI, priority 2019, published 2025).

Tests used:
[1] = test system: Japanese patients with type 2 diabetes mellitus inadequately controlled on oral antidiabetic drugs; assay: EFC14114: treatment-emergent adverse events; conditions: Safety population; for Patients with any TEAE, %: overview of adverse event profile
[2] = test system: Japanese patients with type 2 diabetes mellitus inadequately controlled on oral antidiabetic drugs; assay: EFC14114: mean change in 2-hour postprandial plasma glucose during a standardized meal test; type: in vivo, human; conditions: mITT population, ANCOVA, LOCF
[3] = test system: Japanese patients with type 2 diabetes mellitus inadequately controlled on oral antidiabetic drugs; assay: EFC14114: mean change in fasting plasma glucose from baseline to Week 26; type: in vivo, human; conditions: mITT population, MMRM
[4] = test system: Japanese patients with type 2 diabetes mellitus inadequately controlled on oral antidiabetic drugs; assay: EFC14114: documented symptomatic hypoglycemia; type: in vivo, human; conditions: plasma glucose ≤70 mg/dL [[…]], on-treatment period; for Documented symptomatic hypoglycemia: patients with events, %: Safety population
[5] = test system: Japanese patients with type 2 diabetes mellitus inadequately controlled on oral antidiabetic drugs; assay: EFC14114: mean change in HbA1c from baseline to Week 26; type: in vivo, human; conditions: on-treatment period, mITT population
[6] = SGLT2 inhibitor use at screening: No
[7] = SGLT2 inhibitor use at screening: Yes

## Gly(A21)-Arg(B31)-Arg(B32) human insulin [Insulin Glargine]
[1]; [6]
  Patients with TEAE: Any class, %: (63.4%)
  Patients with TEAE: Back pain (PT), %: (2.9%)
  Patients with TEAE: Constipation (PT), %: (1.5%)
  Patients with TEAE: Dental caries (PT), %: (2.4%)
  Patients with TEAE: Diarrhoea (PT), %: (2.9%)
  Patients with TEAE: Dizziness (PT), %: (3.4%)
  Patients with TEAE: Dyspepsia (PT), %: (0.5%)
  Patients with TEAE: Fatigue (PT), %: (2.0%)
  Patients with TEAE: Gastrointestinal disorders (SOC), %: (15.6%)
  Patients with TEAE: General disorders and administration site conditions (SOC), %: (7.3%)
  Patients with TEAE: Headache (PT), %: (2.0%)
  Patients with TEAE: Hyperhidrosis (PT), %: (2.9%)
  Patients with TEAE: Infections and infestations (SOC), %: (35.6%)
  Patients with TEAE: Influenza (PT), %: (1.5%)
  Patients with TEAE: Metabolism and nutrition disorders (SOC), %: (2.9%)
  Patients with TEAE: Musculoskeletal and connective tissue disorders (SOC), %: (12.2%)
  Patients with TEAE: Nasopharyngitis (PT), %: (25.4%)
  Patients with TEAE: Nausea (PT), %: (1.5%)
  Patients with TEAE: Nervous system disorders (SOC), %: (9.3%)
  Patients with TEAE: Pharyngitis (PT), %: (1.0%)
  Patients with TEAE: Skin and subcutaneous tissue disorders (SOC), %: (9.8%)
  Patients with any TEAE leading to permanent treatment discontinuation, %: 0.5%
  Patients with any serious TEAE, %: 3.4%
  Patients with any TEAE, %: 63.4%
[1]; [7]
  Patients with TEAE: Any class, %: (64.3%)
  Patients with TEAE: Back pain (PT), %: (5.4%)
  Patients with TEAE: Dental caries (PT), %: (1.8%)
  Patients with TEAE: Gastrointestinal disorders (SOC), %: (12.5%)
  Patients with TEAE: General disorders and administration site conditions (SOC), %: (5.4%)
  Patients with TEAE: Headache (PT), %: (5.4%)
  Patients with TEAE: Hyperhidrosis (PT), %: (1.8%)
  Patients with TEAE: Infections and infestations (SOC), %: (33.9%)
  Patients with TEAE: Influenza (PT), %: (1.8%)
  Patients with TEAE: Metabolism and nutrition disorders (SOC), %: (1.8%)
  Patients with TEAE: Musculoskeletal and connective tissue disorders (SOC), %: (12.5%)
  Patients with TEAE: Nasopharyngitis (PT), %: (17.9%)
  Patients with TEAE: Nausea (PT), %: (3.6%)
  Patients with TEAE: Nervous system disorders (SOC), %: (10.7%)
  Patients with TEAE: Pharyngitis (PT), %: (5.4%)
  Patients with TEAE: Skin and subcutaneous tissue disorders (SOC), %: (8.9%)
  Patients with any TEAE leading to permanent treatment discontinuation, %: 1.8%
  Patients with any serious TEAE, %: 1.8%
  Patients with any TEAE, %: 64.3%
[2]; [6]
  Mean change in 2-hour postprandial plasma glucose during a standardized meal test from baseline to Week 26, LSMean (SE): −1.29 (0.185) mmol/L
[2]; [7]
  Mean change in 2-hour postprandial plasma glucose during a standardized meal test from baseline to Week 26, LSMean (SE): −1.38 (0.363) mmol/L
[3]; [6]
  Mean change in fasting plasma glucose from baseline to Week 26, LSMean (SE): −1.46 (0.104) mmol/L
[3]; [7]
  Mean change in fasting plasma glucose from baseline to Week 26, LSMean (SE): −1.01 (0.205) mmol/L
[4]; [6]
  Documented symptomatic hypoglycemia: Number of events: 62
  Documented symptomatic hypoglycemia: Number of events per patient year: 0.61
  Documented symptomatic hypoglycemia: Number of patients with events per patient year: 0.28
  Documented symptomatic hypoglycemia: patients with events, %: 14.1%
[4]; [7]
  Documented symptomatic hypoglycemia: Number of events: 8
  Documented symptomatic hypoglycemia: Number of events per patient year: 0.29
  Documented symptomatic hypoglycemia: Number of patients with events per patient year: 0.11
  Documented symptomatic hypoglycemia: patients with events, %: 5.4%
[5]; [6]
  Mean change in HbA1c from baseline to Week 26, LSMean (SE): −0.83 (0.047) %
[5]; [7]
  Mean change in HbA1c from baseline to Week 26, LSMean (SE): −0.49 (0.091) %
